# Assay results: patent publication US20090191571A1
# Target: T1, PrP^Sc (pathogenic mouse prion protein, RML, in infected Balb-c mouse brain homogenate) (mouse), P04925
row,Binder,ELISA A405nm [A405nm]
1,GGGKKRPAPGG (modifications not checked) [Peptide reagent SEQ ID NO:107],0.578
2,GGGKKAPKPGG (modifications not checked) [Peptide reagent SEQ ID NO:106],0.268
3,GGGAKRPKPGG (modifications not checked) [Peptide reagent SEQ ID NO:104],0.273
4,GGGKARPKPGG (modifications not checked) [Peptide reagent SEQ ID NO:105],0.256

# Target: T1, PrP^Sc (pathogenic mouse prion protein, …)
# Remark: another data set of the same source
row,Binder,ELISA A405nm [A405nm]
1,PHGGGWGQ (modifications not checked) [Peptide reagent SEQ ID NO:71],0.263
2,GGGKKRPKPGGGKKRPKPGG (modifications not checked) [Peptide reagent SEQ ID NO:72],0.522
3,KKKAGAAAAGAVVGGLGG (modifications not checked) [Peptide reagent SEQ ID NO:65],0.635
4,GGGNKPSKPK (modifications not checked) [Peptide reagent SEQ ID NO:79],0.24
5,GGGKKRAKAGG (modifications not checked) [Peptide reagent SEQ ID NO:98],1.46
6,GGGKPSKPK (modifications not checked) [Peptide reagent SEQ ID NO:80],0.225
7,GGTHNQWNKPSKPKTN (modifications not checked) [Peptide reagent SEQ ID NO:54],0.253
8,GGGGPKRKGPK (modifications not checked) [Peptide reagent SEQ ID NO:73],1.06
9,GGGKKKKKKKK (modifications not checked) [Peptide reagent SEQ ID NO:85],0.53
10,GGWGQGGGTHNQWNKPSKPKTN (modifications not checked) [Peptide reagent SEQ ID NO:53],0.254
11,GGGAGAAAAGAVVGGLGG (modifications not checked) [Peptide reagent SEQ ID NO:56],0.313
